Laboratory results taken from EP1188448A2.

Biological target: FGF receptors
Assay: cell-based or functional assay

Question: For “wild type bFGF-SAP chemical conjugate (heterogeneous FGF-SAP) (from UniProt P20656 25-277)”, which ED50, cytotoxicity on SK-MEL-28 cells is on record?
Answer: 8 ng/mL

Question: And the ID50, cytotoxicity on SK-Mel-28 cells (72 h, MTT)?
Answer: 0.3 nM

Question: And the ID50, inhibition of proliferation of serum stimulated rabbit keratocytes (3 h)?
Answer: 1 to 10 nM

Question: And the ID50, inhibition of rabbit keratocyte proliferation (48 h)?
Answer: 0.1 nM

Question: How did the ID50, cytotoxicity on SK-Mel-28 cells (72 h, MTT) turn out when “bFGF-SAP fusion protein (FGF-Ala-Met-SAP), wild type” was run?
Answer: 0.6 nM

Question: And the ID50, inhibition of proliferation of serum stimulated rabbit keratocytes (3 h)?
Answer: 1 to 10 nM

Question: And the ID50, inhibition of rabbit keratocyte proliferation (48 h)?
Answer: 0.2 nM
